According to patent US20150299312A1 (TECHNISCHE UNIVERSIT T DRESDEN, published 2015):

T1: P-selectin glycoprotein ligand 1 (PSGL-1) with the O-bound glycan structure 6-sulfo N-acetyl lactosamine … (human, UniProt Q14242 42-412)
T1 construct: whole, on cells; also called slan
T1 sequence (looked up): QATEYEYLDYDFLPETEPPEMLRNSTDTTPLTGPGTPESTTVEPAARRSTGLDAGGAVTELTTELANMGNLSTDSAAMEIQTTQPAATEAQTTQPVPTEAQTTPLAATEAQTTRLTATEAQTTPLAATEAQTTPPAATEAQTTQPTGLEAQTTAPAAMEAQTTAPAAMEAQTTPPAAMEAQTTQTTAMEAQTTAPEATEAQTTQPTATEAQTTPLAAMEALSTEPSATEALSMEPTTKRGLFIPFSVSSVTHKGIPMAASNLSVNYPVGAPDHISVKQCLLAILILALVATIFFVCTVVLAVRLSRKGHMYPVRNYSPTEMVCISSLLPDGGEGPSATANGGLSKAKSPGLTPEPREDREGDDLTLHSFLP


Biological target: T1, P-selectin glycoprotein ligand 1 …
Experiment: affinity to slan-DCs; method not stated

Binder | Kd | fold higher affinity than DD2 or M-DC8
monoclonal IgM antibody MB4 (antibody, V domains shown, also called anti-slan antibody MB4) VH: EVKLQESGPGLVQPSQSLSITCTVSGFSLTTYGVHWIRQSPGKGLEWLGVIWSGGGTDFNVAFMSRLSINKDNSKSQIFFKMNSLQANDTAIYYCARRTTNDGNYAFAYWGQGTLVTVS VL: DIVMTQSPLSLPVSLGDQASISCRSSQNILHSDGSTYLEWYLQKPGQSPKLLIYKVSNRFSGVPDRFSGSGSGTDFTLKISRVEAEDLGVYYCFQGSHVPWTFGGGTKLEIKR | 0.4 pM | ~25 fold
monoclonal IgM antibody MB6 (antibody, V domains shown, also called anti-slan antibody MB6) VH: EVKLEQSGPGLVQLSQSLSITCTVSGFSLTTYGVHWIRQSPGKGLEWLGVIWSGGGTDFNVAFISRLSINKDNSKSQVFFKMNSLQANDTAIYYCARRTTNDGNYAFAYWGQGTLVTVS VL: DIVMTQSPLSLPVSLGDQASISCRSSQNILHSDGNTYLEWYLQKPGQSPKLLIYKVSNRFSGVPDRFSGSGSGTDFTLKISRVEAEDLGVYYCFQGSHVPWTFGGGTKLEIKR | 0.4 pM | ~25 fold
